Experimental data: US20230075753A1
Values joined by “and” are separate entries in the source; they are usually repeats but may differ in a detail not shown here. Equal entries are not always repeated.

Key:
[1] = biological target: Active cyno KLK5 (cynomolgus monkey)
[2] = biological target: Active human KLK5 (human) (UniProt Q9Y337); assay: cell-based or functional assay

Human LEKTI D5 rabbit Fc fusion protein was tested, and the IC50 (read off the curve) [1] was 700 pM, the Hu KLK5 IC50, inhibition of protease activity (Boc-VPR-AMC) (not printed (M by Table 2)) [2] was 1.03e-10 and 7.44e-11 and the IC50 (M), inhibition of kallikrein protease activity (fluorogenic peptide substrate) [2] was 1.03e-10 M.
